In the Human Domainome abundance scans (Beltran et al. 2025):

B1: Peroxisome proliferator-activated receptor delta, residues 71 to 145; numbered along this chain, Q03181 (parent)
chain: NMECRVCGDKASGFHYGVHACEGCKGFFRRTIRMKLEYEKCERSCKIQKKNRNKCQYCRFQKCLALGMSHNAIRF

Variants of: B1
Assay: abundance fitness (aPCA) (normalised: wild type 0, dead -1); higher = more abundant; growth selection in yeast, the domain comes from the species named
Settings: Homo sapiens

Abundance fitness, by site and new letter:
K49: E 0.144; L 0.066; S -0.207; F -0.045; G 0.202; A 0; V 0.066; H 0.602; T 0.023; M -0.065; W 0.006
K40: L -0.077; Q -0.05; S -0.255; Y -0.088; R -0.095; D -0.408; P -0.117; F 0.02; I 0.061; E -0.113; V 0.026; G -0.472; H 0.08; M -0.09; W -0.348; C -0.216; T -0.154; N -0.225
C41: P -0.093; G -0.684; R -0.694; W -0.774; Y -0.816; S -0.945; H -0.361; F -0.398; L -1.27; V -0.645; E -0.729; A -1
E42: I -0.304; N -0.335; R -0.367; W -0.295; Y -0.093; M -0.051; F -0.139; K -0.209; G -0.135; D -0.16; V -0.074; T -0.117; P -0.25; A -0.179; H -0.195; S -0.117; Q -0.104; L -0.195; C -0.394
N51: H -0.071; M -0.026; I -0.016; P -0.307; C -0.451; S -0.052; K -0.212; E 0.055; Q -0.042; F -0.028; L -0.133; W -0.408; G -0.129; A -0.154; V -0.17; D 0.086; Y -0.363; T -0.002; R -0.395
R43: K 0.078; G -0.085; N 0.223; I -0.349; C -0.138; Q 0.111; P -0.168; W -0.252; M -0.043; H -0.07; F 0.082; S -0.045; D -0.149; E 0.013; A -0.064; T -0.161; V -0.158
Y38: W -0.397; A -0.738; E -0.803; H -0.718; K -0.776; M -0.631; L -0.544; N -0.72; T -0.607; Q -1.02; V -0.74; R -0.846; C -0.741; S -0.868; P -0.758; I -0.483
S44: L -0.038; R -0.05; K 0.12; Q 0.069; Y 0.061; H 0.073; W -0.314; A -0.045; F -0.005; D 0.055; T -0.049; E 0.139; P -0.134; C -0.164; I -0.212; G 0.055; M 0.028; V -0.086
E39: M -0.167; A -0.057; W -0.518; P 0.072; T -0.052; D -0.063; N -0.222; L -0.229; Q -0.082; K 0.017; R -0.224; V -0.061; G -0.221; C -0.586; S -0.094; Y -0.447; H -0.336; I -0.191
I47: F -0.246; W -0.316; C -0.51; N -0.4; H -0.589; D -0.126; S -0.287; Y -0.419; E -0.235; T -0.253; G -0.269; K -0.453; M -0.132; V 0.004; R -0.502
K35: E 0.063; I -0.655; L -0.495; F -0.339; Y -0.456; N 0.04; R -0.026; C -0.015; Q 0.093; S 0.013; T -0.272; P -0.509; W -0.535; M -0.079; V -0.33; H -0.169; D -0.028; A -0.054
M34: C -0.032; R -0.161; G -0.033; L 0.006; D 0.192; P -0.602; K -0.074; S -0.097; I -0.817; H 0.047; Q 0.136; A -0.112; T -0.36; W -0.063; V -0.577; E 0.118
T31: S -0.043; K -0.917; P -1.16; V -0.394; I -0.49; Q -0.792; Y -0.46; L -0.985; M -0.521; W -0.588; N -0.967; R -0.778
C45: Y -0.374; N -0.835; D -1.01; T -1; V -0.84; E -0.838; L -0.766; R -0.768; W -0.864; Q -0.884; G -0.787; I -0.842; M -0.548; S -0.743; K -0.927; H -0.218; P -0.876; F -0.647
L36: P -0.374; E -0.109; T -0.139; Q -0.222; A -0.135; M -0.05; H -0.151; F -0.162; R -0.26; S -0.235; Y -0.047; C -0.13; K -0.165; G -0.224; D -0.461
K50: N 0.147; I 0.132; Q 0.077; C -0.164; L -0.069; Y -0.295; R -0.06; P -0.089; D 0.094; M 0.034; A 0.06; W -0.056; S -0.046; T -0.018; V -0.129; F 0.07; E 0.111
K46: F 0.015; P 0.037; R -0.037; A 0.007; L 0.022; T 0.05; M 0.066; S 0.006; N 0.029; V 0.023; I 0.12; Y -0.051; W -0.153; H 0.047; C -0.046; D 0.142; Q 0.106; E 0.124
R33: T 0.129; P -0.972; Y -0.019; L 0.089; D 0.177; M 0.088; E 0.18; V 0.072; Q 0.058; G -0.038; H -0.091; F 0.208; S 0.168; C 0.11; W -0.108; N 0.082
I32: G -0.677; P -0.869; F -0.185; S -0.464; E -0.531; H -0.405; R -0.514; L -0.095; A -0.221; Y -0.133; T -0.107; C -0.234; Q -0.365; M -0.142; N -0.617; D -0.5
R52: C -0.241; I 0.012; F -0.155; K 0.207; E -0.037; L -0.087; D 0.075; H -0.307
E37: D -0.034; W -0.311; L -0.16; N 0.014; P -0.559; T -0.121; K -0.038; F -0.227; G -0.319; C 0.011; A -0.13; I -0.069; V -0.042; Y -0.326; R -0.069; M -0.164; H -0.067
